Here are results for 2 molecules from patent publication US20250346682A1 (TENEOBIO, published 2025).

In the assay the target is T1, human CD20 (B-lymphocyte antigen CD20) (human, UniProt P11836 1-297).
T1 construct: whole, on cells; also called MS4A1
T1 sequence (looked up): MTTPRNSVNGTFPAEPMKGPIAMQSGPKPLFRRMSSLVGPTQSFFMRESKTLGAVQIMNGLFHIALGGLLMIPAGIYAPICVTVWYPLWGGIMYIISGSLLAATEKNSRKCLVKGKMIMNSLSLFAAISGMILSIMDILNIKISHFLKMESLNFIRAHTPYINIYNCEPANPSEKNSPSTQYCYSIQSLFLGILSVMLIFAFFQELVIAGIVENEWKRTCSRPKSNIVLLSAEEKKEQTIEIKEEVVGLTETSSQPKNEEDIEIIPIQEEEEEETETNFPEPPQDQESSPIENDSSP
The assay can be described thus: ELISA on CD20 protein and cell-binding assays.

B1: anti-CD20 heavy chain-only antibody (UniAb) Clone ID 367936 (antibody, V domains shown)
VH: QVQLQESGPGLVKPSETLSLTCTVSGGSVSSGNYYWNWIRQPPGKGLEWIGYIYSSGSTKYNPSLKSRVTILVDTSKNQFSLKLSSVTAADTAVYYCARSRLNGDGLFDDRGQGTLVTVSS
notes: Heavy chain-only antibody (UniAb) from UniRat, called human IgG, with no light chain; also called VH936
B1: the binding result is “binds”.

B2: anti-CD20 heavy chain-only antibody (UniAb) Clone ID 367912 (antibody, V domains shown)
VH: EVQLVESGGGVVRPGGSLRLSCAASGFTFDDYGMSWVRQAPGKGLEWVSSINWNGGSKGYADSVKGRFTISRDNAKNSLYLQMNSLRVEDTALYQCARERGYRIGHDSFDIWGQGTLVTVSS
notes: Heavy chain-only antibody (UniAb) from UniRat, called human IgG, with no light chain; also called VH912
As to B2, the binding result is reported as “binds”.
